This is an account of results in US20240066131A1 (Protagonist Therapeutics, Inc., priority 2020, published 2024).

B1: Isovaleric Acid-A-T-H-E-P-K-I-[Lys(Ahx_Palm)]-[bhPhe]-R-NH2; (E and K cyclized) (peptide)
peptide: Isovaleryl-ATHEPKIK([Ahx-Palmitoyl])[β3hF]R-NH2
modifications: lactam 4-6
SMILES: CCCCCCCCCCCCCCCC(=O)NCCCCCC(=O)NCCCC[C@H](NC(=O)[C@@H](NC(=O)[C@@H]1CCCCNC(=O)CC[C@H](NC(=O)[C@H](Cc2c[nH]cn2)NC(=O)[C@@H](NC(=O)[C@H](C)NC(=O)CC(C)C)[C@@H](C)O)C(=O)N2CCC[C@H]2C(=O)N1)[C@@H](C)CC)C(=O)N[C@H](CC(=O)N[C@@H](CCCNC(=N)N)C(N)=O)Cc1ccccc1
B2: Isovaleric Acid-E-T-H-[Dpa]-P-A-I-[(D)Lys]-[bhPhe]-[Lys(Ahx_Palm)]-[(D)Lys]-NH2 (peptide)
peptide: Isovaleryl-ETH[Dip]PAI[dK][β3hF]K([Ahx-Palmitoyl])[dK]-NH2
SMILES: CCCCCCCCCCCCCCCC(=O)NCCCCCC(=O)NCCCC[C@H](NC(=O)C[C@H](Cc1ccccc1)NC(=O)[C@@H](CCCCN)NC(=O)[C@@H](NC(=O)[C@H](C)NC(=O)[C@@H]1CCCN1C(=O)[C@@H](NC(=O)[C@H](Cc1c[nH]cn1)NC(=O)[C@@H](NC(=O)[C@H](CCC(=O)O)NC(=O)CC(C)C)[C@@H](C)O)C(c1ccccc1)c1ccccc1)[C@@H](C)CC)C(=O)N[C@H](CCCCN)C(N)=O
B3: Isovaleric Acid-A-T-H-[Dpa]-P-E-I-[(D)Lys]-[bhPhe]-[Lys(Ahx_Palm)]-R-NH2; (E and (D)Lys cyclized) (peptide)
peptide: Isovaleryl-ATH[Dip]PEI[dK][β3hF]K([Ahx-Palmitoyl])R-NH2
modifications: lactam 6-8
SMILES: CCCCCCCCCCCCCCCC(=O)NCCCCCC(=O)NCCCC[C@H](NC(=O)C[C@H](Cc1ccccc1)NC(=O)[C@H]1CCCCNC(=O)CC[C@H](NC(=O)[C@@H]2CCCN2C(=O)[C@@H](NC(=O)[C@H](Cc2c[nH]cn2)NC(=O)[C@@H](NC(=O)[C@H](C)NC(=O)CC(C)C)[C@@H](C)O)C(c2ccccc2)c2ccccc2)C(=O)N[C@@H]([C@@H](C)CC)C(=O)N1)C(=O)N[C@@H](CCCNC(=N)N)C(N)=O
B4: Isovaleric Acid-A-T-H-[Dpa]-P-K-I-E-[bhPhe]-[Lys(Ahx_Palm)]-R-NH2; (K and E cyclized) (peptide)
peptide: Isovaleryl-ATH[Dip]PKIE[β3hF]K([Ahx-Palmitoyl])R-NH2
modifications: lactam 6-8
SMILES: CCCCCCCCCCCCCCCC(=O)NCCCCCC(=O)NCCCC[C@H](NC(=O)C[C@H](Cc1ccccc1)NC(=O)[C@@H]1CCC(=O)NCCCC[C@H](NC(=O)[C@@H]2CCCN2C(=O)[C@@H](NC(=O)[C@H](Cc2c[nH]cn2)NC(=O)[C@@H](NC(=O)[C@H](C)NC(=O)CC(C)C)[C@@H](C)O)C(c2ccccc2)c2ccccc2)C(=O)N[C@@H]([C@@H](C)CC)C(=O)N1)C(=O)N[C@@H](CCCNC(=N)N)C(N)=O
B5: Isovaleric Acid-A-T-H-K-P-E-I-[Lys(Ahx_Palm)]-[bhPhe]-R-NH2; (K and E cyclized) (peptide)
peptide: Isovaleryl-ATHKPEIK([Ahx-Palmitoyl])[β3hF]R-NH2
modifications: lactam 4-6
SMILES: CCCCCCCCCCCCCCCC(=O)NCCCCCC(=O)NCCCC[C@H](NC(=O)[C@@H](NC(=O)[C@@H]1CCC(=O)NCCCC[C@H](NC(=O)[C@H](Cc2c[nH]cn2)NC(=O)[C@@H](NC(=O)[C@H](C)NC(=O)CC(C)C)[C@@H](C)O)C(=O)N2CCC[C@H]2C(=O)N1)[C@@H](C)CC)C(=O)N[C@H](CC(=O)N[C@@H](CCCNC(=N)N)C(N)=O)Cc1ccccc1

Positions of bridges follow the written chain, without caps; N, C: chain ends. Non-standard residues stand in square brackets, D forms with d. Groups on a side chain read outwards from the residue. *: point of attachment. Dip = N[C@H](C(=O)O)C(c1ccccc1)c1ccccc1; Palmitoyl = CCCCCCCCCCCCCCCC(=O)*; β3hF = N[C@H](CC(=O)O)Cc1ccccc1; Isovaleryl = CC(C)CC(=O)*; IDA = iminodiacetic acid; Ahx = NCCCCCC(=O)O

The target in this test is T1, human ferroportin (SLC40A1) fused in frame with GFP, stably expressed in HEK293 cells (human, UniProt Q9NP59 1-571).
T1 sequence (looked up): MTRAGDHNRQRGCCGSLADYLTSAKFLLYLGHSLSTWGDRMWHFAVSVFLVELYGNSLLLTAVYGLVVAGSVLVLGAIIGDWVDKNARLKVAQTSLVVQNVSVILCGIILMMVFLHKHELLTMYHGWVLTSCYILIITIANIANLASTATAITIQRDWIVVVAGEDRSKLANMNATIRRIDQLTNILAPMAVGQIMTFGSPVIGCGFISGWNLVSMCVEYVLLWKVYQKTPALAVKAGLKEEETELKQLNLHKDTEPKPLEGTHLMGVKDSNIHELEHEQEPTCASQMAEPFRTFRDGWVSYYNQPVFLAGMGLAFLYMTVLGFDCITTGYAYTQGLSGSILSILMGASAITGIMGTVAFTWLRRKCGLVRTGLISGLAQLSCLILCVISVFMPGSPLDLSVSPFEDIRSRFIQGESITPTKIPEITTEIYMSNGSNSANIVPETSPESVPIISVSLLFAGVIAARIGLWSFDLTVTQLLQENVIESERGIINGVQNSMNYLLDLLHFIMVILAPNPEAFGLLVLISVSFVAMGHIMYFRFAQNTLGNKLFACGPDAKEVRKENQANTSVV
The test is described as follows: cell-based or functional assay.
For B1, the “FPN EC50” value is above 3000 nM.
As to Pimelic_Acid-ETH[Dip]PIIK(Ac)[β3hF]-NH2 [[Pimelic_Acid]-E-T-H-[Dpa]-P-I-I-[Lys(Ac)]-[bhPhe]-NH2], the “FPN EC50” value was above 5000 nM.
For the molecule Glutaric_Acid-ETH[Dip]PIIK(Ac)[β3hF]-NH2 [[Glutaric_Acid]-E-T-H-[Dpa]-P-I-I-[Lys(Ac)]-[bhPhe]-NH2], the “FPN EC50” value is above 3000 nM.
To B2 belongs 45.5 nM; to Gallic_Acid-ETH[Dip]PIIK(Ac)[β3hF]-NH2 [[Gallic_Acid]-E-T-H-[Dpa]-P-I-I-[Lys(Ac)]-[bhPhe]-NH2], above 3000 nM; to {IDA}-ETH[Dip]PIIK(Ac)[β3hF]-NH2 [[IDA]-E-T-H-[Dpa]-P-I-I-[Lys(Ac)]-[bhPhe]-NH2], above 5000 nM.
B3: the “FPN EC50” value worked out at 61.2 nM.
For Succinic_Acid-ETH[Dip]PIIK(Ac)[β3hF]-NH2 [[Succinic_Acid]-E-T-H-[Dpa]-P-I-I-[Lys(Ac)]-[bhPhe]-NH2], the “FPN EC50” value is above 3000 nM.
For the molecule B4, the “FPN EC50” value was 90.7 nM.
On to B5, for which the “FPN EC50” value is above 3000 nM.
